How the values were obtained:
[1] = biological target: GST-P/Q, residues 1898-2035 of the rat P/Q channel α1 subunit (Cav2.1) C-terminal tail (rat); assay: pull-down; 5 μM GST fusion protein immobilised on glutathione-agarose; 5 μM GST-free NCS-1 or CaM added; 150 mM KCl, 20 mM HEPES pH 7.4, 10% glycerol, 5 mM NTA, 5 mM EGTA, 1 mM DTT, 0.1% NP-40, with 1 μM free Ca2+; 1 h, 4 °C; Western blot, densitometry normalised to NCS-1 on GST-PQ with Ca2+ = 100%
[2] = biological target: Cav2.1 P/Q-type calcium channel IQ domain (Homo sapiens) (UniProt O00555); assay: ITC; details: cited from earlier work
Sequence of Cav2.1 P/Q-type calcium channel IQ domain (Homo sapiens) (O00555 1963-1983): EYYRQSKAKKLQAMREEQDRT

Sequence of Neuronal calcium sensor-1 (NCS-1), GST-free recombinant protein from the GST-NCS-1 plasmid (P62166 whole entry): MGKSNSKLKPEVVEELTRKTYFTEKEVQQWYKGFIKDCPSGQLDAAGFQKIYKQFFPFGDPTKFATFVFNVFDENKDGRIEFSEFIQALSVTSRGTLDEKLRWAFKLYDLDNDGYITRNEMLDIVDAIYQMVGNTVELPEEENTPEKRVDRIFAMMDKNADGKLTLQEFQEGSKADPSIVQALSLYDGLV

Row | average NCS-1 bound (%) [1] | Substance | Kd [2]
1 | 100% | Neuronal calcium sensor-1 (NCS-1), GST-free recombinant protein from the GST-NCS-1 plasmid (from UniProt P62166 1-190) (natural protein) | –
2 | – | calmodulin C lobe C lobe (from UniProt P0DP23) | 4.32 nM
